Source: patent publication US12269859B2, “Synthetic immune receptors and methods of use thereof” (Angeles Therapeutics, Inc., priority 2016, dated 2025)

Test system: target antigen-expressing cell line
Experiment: Jurkat NFAT-GFP assay, coculture with target cell lines expressing the respective target antigen (summary Table 10A)
Type: cell-based, human
Set-up: key: The signs +/−, +, 2+ etc. after the name of the cell lines indicate the relative degree of positivity on the Jurkat-NFAT-GFP assay as measured by the % GFP positive cells; +: relative degree of positivity on the Jurkat-NFAT-GFP assay as measured by the % GFP positive cells; 2+: relative degree of positivity on the Jurkat-NFAT-GFP assay as measured by the % GFP positive cells
Conditions: relative % GFP positive cells; for NFAT-GFP ASSAY Positive Cell lines: RAJI: SIR-expressing Jurkat-NFAT-GFP cells cocultured with RAJI
Procedure: (B) Induction of NFAT promoter driven GFP expression. The control vector- and SIR-expressing Jurkat-NFAT-GFP cocultured for 4-24 hours with the target antigen-expressing cell line (described above) and their ability to bind to the target antigen is assayed by measuring induction of GFP expression using Flow Cytometry. Cellular supernatant is collected and assayed for the induction of cytokines (e.g., IL2).
Jurkat NFAT-GFP Assay For Synthetic Immune Receptors. The Jurkat-NFAT-GFP cells are engineered in such a way that the IL-2 promoter, which carries NFAT binding sites, is cloned upstream of the GFP gene. These cells have been used to study signaling via TCR and CAR. The different SIRs were stably expressed in Jurkat NFAT-GFP cells by lentiviral mediated gene transfer, followed by selection with puromycin. The SIR-expressing Jurkat-NFAT-GFP cells were cocultured with the target cells at E:T ratio of approximately 1:2 for approximately 4 hours to 18 hours. When the interaction between SIRs and their target antigen results in activation of the NFAT pathway, GFP expression is induced.
Induction of GFP expression by coculturing of Jurkat-NFAT-GFP cells expressing different SIR constructs and the different target cells was studied essentially as described previously (Wu, Roybal, Puchner, Onuffer, & Lim, 2015). GFP expression was monitored by FACS analysis. A few representative examples of this assay are shown in the FIG. 13A-B. In panel A, control Jurkat-NFAT-GFP cells or those expressing SIRs targeting CD19 (clone ID 051716-I08), MPL (Clone ID: 040716-A07) and BCMA (Clone ID: 011116-A07) were incubated with RAJI (top), HEL (middle) or U266 (bottom) cells, respectively. […] In panel B, Jurkat cells expressing SIR targeting CDH6 (Clone ID: 051716-J05), CD276 (Clone ID: 050516-Q06) and Her2/neu (Clone ID: 050516-I03) were incubated with SKOV3 (top) and […] (middle and bottom) cells, respectively. […] The Jurkat-NFAT-GFP cells were engineered to express different SIRs targeting other antigens and the experiment repeated upon coculture with the target cells expressing their respective target antigen. The Jurkat-NFAT-GFP (parental) cells were used as control. The names of different SIRs, their SEQ ID NOs, component antigen binding domains and TCR chains can be determined by reference to Tables 7A-7H. A SIR is considered positive in the assay in case the SIR expressing Jurkat-NFAT-GFP cells show greater % GFP positive cells when cultured with the target cell line as compared to parental Jurkat-NFAT-GFP cells. […] The signs +/−, +, 2+ etc. after the name of the cell lines indicate the relative degree of positivity on the Jurkat-NFAT-GFP assay as measured by the % GFP positive cells after culture of the SIR expressing Jurkat-NFAT-GFP cells with that cell line. […] In addition, great diversity of response against the same target cell line is observed with Jurkat cells expressing SIRs containing different antigen binding domains targeting the same antigen (e.g., SIRs having antigen binding domains derived form different CD19 antibodies) even when the SIRs share the same TCR chains and linkers. Finally, Jurkat cells expressing SIRs targeting different antigens (e.g. CD19 vs CD20) show a diversitiy of response when exposed to the same target cell line. Thus, a diverse immune response can be generated against a single target cell by combining SIRs with different TCR chains, linkers, antigen binding domains and target specificity. Table 10A also summarizes the results of GLuc based T cell cytotoxicity assay observed with different SIRs when exposed to their target cell lines. […]

B1: 091216-K03 (protein)
chain: MALPVTALLLPLALLLHAARPLEGKPIPNPLLGLDSTGSGEDLKNVFPPEVAVFEPSKAEIAHTQKATLVCLATGFYPDHVELSWWVNGKEVHSGVCTDPQPLKEQPALNDSRYCLSSRLRVSATFWQNPRNHFRCQVQFYGLSENDEWTQDRAKPVTQIVSAEAWGRADCGITSASYHQGVLSATILYEILLGKATLYAVLVSALVLMAMVKRKDSRGRAKRSGSGATNFSLLKQAGDVEENPGPTSTMALPVTALLLPLALLLHAARPEIVMTQSPATLSLSPGERATLSCRASQDISKYLNWYQQKPGQAPRLLIYHTSRLHSGIPARFSGSGSGTDYTLTISSLQPEDFAVYFCQQGNTLPYTFGQGTKLEIKGGGGSGGGGSGGGGSQVQLQESGPGLVKPSETLSLTCTVSGVSLPDYGVSWIRQPPGKGLEWIGVIWGSETTYYNSSLKSRVTISKDNSKNQVSLKLSSVTAADTAVYYCAKHYYYGGSYAMDYWGQGTLVTVSSTREQKLISEEDGSGIQNPDPAVYQLRDSKSSDKSVCLFTDFDSQTNVSQSKDSDVYITDKCVLDMRSMDFKSNSAVAWSNKSDFACANAFNNSIIPEDTFFPSSDVPCDVKLVEKSFETDTNLNFQNLSVIGFRILLLKVAGFNLLMTLRLWSSRAKRSGSGVKQTLNFDLLKLAGDVESNPGPSRGHMTEYKPTVRLATRDDVPRAVRTLAAAFADYPATRHTVDPDRHIERVTELQELFLTRVGLDIGKVWVADDGAAVAVWTTPESVEAGAVFAEIGPRMAELSGSRLAAQQQMEGLLAPHRPKEPAWFLATVGVSPDHQGKGLGSAVVLPGVEAAERAGVPAFLETSAPRNLPFYERLGFTVTADVEVPEGPRTWCMTRKPGA
modifications: Synthetic Immune Receptor (SIR)
- NFAT-GFP ASSAY Positive Cell lines: RAJI: RAJI (+/−)

B2: 072516-B05 (protein)
chain: MALPVTALLLPLALLLHAARPEIVMTQSPATLSLSPGERATLSCRASQDISKYLNWYQQKPGQAPRLLIYHTSRLHSGIPARFSGSGSGTDYTLTISSLQPEDFAVYFCQQGNTLPYTFGQGTKLEIKLEGKPIPNPLLGLDSTGSGEDLKNVFPPEVAVFEPSKAEIAHTQKATLVCLATGFYPDHVELSWWVNGKEVHSGVCTDPQPLKEQPALNDSRYCLSSRLRVSATFWQNPRNHFRCQVQFYGLSENDEWTQDRAKPVTQIVSAEAWGRADCGITSASYHQGVLSATILYEILLGKATLYAVLVSALVLMAMVKRKDSRGRAKRSGSGATNFSLLKQAGDVEENPGPTSMDWIWRILFLVGAATGAHSFEQVQLQESGPGLVKPSETLSLTCTVSGVSLPDYGVSWIRQPPGKGLEWIGVIWGSETTYYNSSLKSRVTISKDNSKNQVSLKLSSVTAADTAVYYCAKHYYYGGSYAMDYWGQGTLVTVSSTREQKLISEEDGSGIQNPDPAVYQLRDSKSSDKSVCLFTDFDSQTNVSQSKDSDVYITDKCVLDMRSMDFKSNSAVAWSNKSDFACANAFNNSIIPEDTFFPSSDVPCDVKLVEKSFETDTNLNFQNLSVIGFRILLLKVAGFNLLMTLRLWSSRAKRSGSGVKQTLNFDLLKLAGDVESNPGPSRGHMTEYKPTVRLATRDDVPRAVRTLAAAFADYPATRHTVDPDRHIERVTELQELFLTRVGLDIGKVWVADDGAAVAVWTTPESVEAGAVFAEIGPRMAELSGSRLAAQQQMEGLLAPHRPKEPAWFLATVGVSPDHQGKGLGSAVVLPGVEAAERAGVPAFLETSAPRNLPFYERLGFTVTADVEVPEGPRTWCMTRKPGA
modifications: Synthetic Immune Receptor (SIR)
- NFAT-GFP ASSAY Positive Cell lines: RAJI: RAJI(+/−)

B3: 101216-H03 (protein)
chain: MALPVTALLLPLALLLHAARPEIVMTQSPATLSLSPGERATLSCRASQDISKYLNWYQQKPGQAPRLLIYHTSRLHSGIPARFSGSGSGTDYTLTISSLQPEDFAVYFCQQGNTLPYTFGQGTKLEIKLEGKPIPNPLLGLDSTGSGEDLKNVFPPEVAVFEPSKAEIAHTQKATLVCLATGFYPDHVELSWWVNGKEVHSGVCTDPQPLKEQPALNDSRYCLSSRLRVSATFWQNPRNHFRCQVQFYGLSENDEWTQDRAKPVTQIVSAEAWGRADCGITSASYHQGVLSATILYEILLGKATLYAVLVSALVLMAMVKRKDSRGRAKRSGSGATNFSLLKQAGDVEENPGPTSMDWIWRILFLVGAATGAHSFEDIQMTQTTSSLSASLGDRVTISCRASQDISKYLNWYQQKPDGTVKLLIYHTSRLHSGVPSRFSGSGSGTDYSLTISNLEQEDIATYFCQQGNTLPYTFGGGTKLEITTREQKLISEEDGSGIQNPDPAVYQLRDSKSSDKSVCLFTDFDSQTNVSQSKDSDVYITDKCVLDMRSMDFKSNSAVAWSNKSDFACANAFNNSIIPEDTFFPSSDVPCDVKLVEKSFETDTNLNFQNLSVIGFRILLLKVAGFNLLMTLRLWSSRAKRSGSGVKQTLNFDLLKLAGDVESNPGPSRGHMTEYKPTVRLATRDDVPRAVRTLAAAFADYPATRHTVDPDRHIERVTELQELFLTRVGLDIGKVWVADDGAAVAVWTTPESVEAGAVFAEIGPRMAELSGSRLAAQQQMEGLLAPHRPKEPAWFLATVGVSPDHQGKGLGSAVVLPGVEAAERAGVPAFLETSAPRNLPFYERLGFTVTADVEVPEGPRTWCMTRKPGA
- NFAT-GFP ASSAY Positive Cell lines: NALM6 (SIR-expressing Jurkat-NFAT-GFP cells cocultured with NALM6): RAJI(2+), NALM6(2+)
- NFAT-GFP ASSAY Positive Cell lines: RAJI: RAJI(2+), NALM6(2+)

B4: 012617-N02 (protein)
chain: MALPVTALLLPLALLLHAARPLEGKPIPNPLLGLDSTGSGEDLKNVFPPEVAVFEPSKAEIAHTQKATLVCLATGFYPDHVELSWWVNGKEVHSGVCTDPQPLKEQPALNDSRYCLSSRLRVSATFWQNPRNHFRCQVQFYGLSENDEWTQDRAKPVTQIVSAEAWGRADCGITSASYHQGVLSATILYEILLGKATLYAVLVSALVLMAMVKRKDSRGRAKRSGSGATNFSLLKQAGDVEENPGPTSMALPVTALLLPLALLLHAARPQSVVTQPPSVSAAPGQKVTISCSGSSSNIGNNYVSWYQQLPGTAPKLLIYDNNKRPSGIPDRFSGSKSGTSATLGITGLQTGDEADYYCGTWDGSLYTMLFGGGTKLTVLGGGGSGGGGSGGGGSEVQLVESGGGLVKPGGSLRLSCAASGFTFSNAWMSWVRQAPGKGLEWVGFIRSKAYGGTTEYAASVKGRFTISRDDSKSIAYLQMNNLKTEDTAVYYCARDGLYSSSWYDSDYWGQGTLVTVSSTREQKLISEEDGSGIQNPDPAVYQLRDSKSSDKSVCLFTDFDSQTNVSQSKDSDVYITDKCVLDMRSMDFKSNSAVAWSNKSDFACANAFNNSIIPEDTFFPSSDVPCDVKLVEKSFETDTNLNFQNLSVIGFRILLLKVAGFNLLMTLRLWSSRAKRSGSGVKQTLNFDLLKLAGDVESNPGPSRGHMTEYKPTVRLATRDDVPRAVRTLAAAFADYPATRHTVDPDRHIERVTELQELFLTRVGLDIGKVWVADDGAAVAVWTTPESVEAGAVFAEIGPRMAELSGSRLAAQQQMEGLLAPHRPKEPAWFLATVGVSPDHQGKGLGSAVVLPGVEAAERAGVPAFLETSAPRNLPFYERLGFTVTADVEVPEGPRTWCMTRKPGA
- NFAT-GFP ASSAY Positive Cell lines: HepG2 (SIR-expressing Jurkat-NFAT-GFP cells cocultured with HepG2): HepG2 (+/−)
